Experimental data: article PMC6439443

Biological target: High-mannose IgG1 antibody (human)
Assay: SPR

“EndoS2 E186L (catalytically inactive EndoS2 variant) (from UniProt T1WGN1 44-843) (enzyme)” showed a Kd greater than 100 µM.
